Assay results published in paper PMC3813961 (Biochemistry, 2013).
Read-outs that look alike come from different tables or passages of the source. One block for each molecule: values may come before it.

Legend:
[1] = target: EL222 L120K variant (Erythrobacter litoralis HTCC2594); assay: SEC-MALS
[2] = target: EL222 S137Y variant (Erythrobacter litoralis HTCC2594); assay: SEC-MALS
[3] = target: EL222 V41I:L52I:A79Q:V121I variant (AQTrip) (Erythrobacter litoralis HTCC2594); assay: SEC-MALS
[4] = target: EL222 V41I:L52I:A79Q:V121I variant (AQTrip) (Erythrobacter litoralis HTCC2594); assay: SEC-MALS; remark: listed apart in the source
[5] = target: EL222 V41I:L52I:A79Q:V121I variant (AQTrip) (Erythrobacter litoralis HTCC2594); assay: SEC-MALS; remark: listed apart in the source
native gel or EMSA = target: the molecule itself; assay: native gel or EMSA

Molecule: EL222 V41I:L52I:A79Q:V121I variant (AQTrip) (natural protein)
- stoichiometry N [3]: 4
- stoichiometry N [4]: 2
- stoichiometry N [5]: 2

B1: His6-Gβ1-tagged wild-type EL222 (natural protein, Erythrobacter litoralis HTCC2594, UniProt Q2NB98 1-225, looked up)
chain: MLDMGQDRPIDGSGAPGADDTRVEVQPPAQWVLDLIEASPIASVVSDPRLADNPLIAINQAFTDLTGYSEEECVGRNCRFLAGSGTEPWLTDKIRQGVREHKPVLVEILNYKKDGTPFRNAVLVAPIYDDDDELLYFLGSQVEVDDDQPNMGMARRERAAEMLKTLSPRQLEVTTLVASGLRNKEVAARLGLSEKTVKMHRGLVMEKLNLKTSADLVRIAVEAGI
- stoichiometry N (native gel or EMSA): 2

Further lines, results first:

- stoichiometry N [1]: 2
Molecule: EL222 L120K variant (natural protein)

- stoichiometry N [2]: 2
Molecule: EL222 S137Y variant (natural protein)
